Reference: IntAct's records for PubMed 24366543

B1: Nuclear factor erythroid 2-related factor 2 (Mus musculus), Q60795 (parent)
chain: MMDLELPPPGLQSQQDMDLIDILWRQDIDLGVSREVFDFSQRQKDYELEKQKKLEKERQEQLQKEQEKAFFAQFQLDEETGEFLPIQPAQHIQTDTSGSASYSQVAHIPKQDALYFEDCMQLLAETFPFVDDHESLALDIPSHAESSVFTAPHQAQSLNSSLEAAMTDLSSIEQDMEQVWQELFSIPELQCLNTENKQLADTTAVPSPEATLTEMDSNYHFYSSISSLEKEVGNCGPHFLHGFEDSFSSILSTDDASQLTSLDSNPTLNTDFGDEFYSAFIAEPSDGGSMPSSAAISQSLSELLDGTIEGCDLSLCKAFNPKHAEGTMEFNDSDSGISLNTSPSRASPEHSVESSIYGDPPPGFSDSEMEELDSAPGSVKQNGPKAQPAHSPGDTVQPLSPAQGHSAPMRESQCENTTKKEVPVSPGHQKAPFTKDKHSSRLEAHLTRDELRAKALHIPFPVEKIINLPVDDFNEMMSKEQFNEAQLALIRDIRRRGKNKVAAQNCRKRKLENIVELEQDLGHLKDEREKLLREKGENDRNLHLLKRRLSTLYLEVFSMLRDEDGKPYSPSEYSLQQTRDGNVFLVPKSKKPDTKKN

Variants of: B1
Settings: with keap1_mouse Keap1, Q9Z2X8
Chain of keap1_mouse Keap1, Q9Z2X8 (Q9Z2X8 whole entry): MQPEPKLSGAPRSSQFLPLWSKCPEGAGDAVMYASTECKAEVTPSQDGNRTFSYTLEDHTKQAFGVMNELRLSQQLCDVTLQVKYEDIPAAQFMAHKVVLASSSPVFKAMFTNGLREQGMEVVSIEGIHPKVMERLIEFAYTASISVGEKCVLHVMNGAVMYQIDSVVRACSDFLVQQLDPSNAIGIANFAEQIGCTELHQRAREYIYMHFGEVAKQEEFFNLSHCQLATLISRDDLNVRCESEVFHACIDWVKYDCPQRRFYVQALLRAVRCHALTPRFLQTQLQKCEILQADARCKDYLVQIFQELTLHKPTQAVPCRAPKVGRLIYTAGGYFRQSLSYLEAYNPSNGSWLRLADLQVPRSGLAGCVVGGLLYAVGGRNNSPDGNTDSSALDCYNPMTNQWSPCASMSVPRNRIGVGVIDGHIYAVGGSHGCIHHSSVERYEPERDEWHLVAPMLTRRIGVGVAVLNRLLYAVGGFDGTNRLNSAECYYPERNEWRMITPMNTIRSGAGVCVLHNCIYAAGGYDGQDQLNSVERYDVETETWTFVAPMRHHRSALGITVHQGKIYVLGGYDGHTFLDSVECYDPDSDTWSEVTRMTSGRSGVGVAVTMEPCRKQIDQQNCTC

| effect of a mutation on the interaction | Variant |
| --- | --- |
| disrupting interaction | MMDLELPPPGLQSQQDMDLIDILRRQDIDLGVSREVFDFSQRQKDYELEKQKKLEKERQEQLQKEQEKAFFAQFQLDEETGEFLPIQPAQHIQTDTSGSASYSQVAHIPKQDALYFEDCMQLLAETFPFVDDHESLALDIPSHAESSVFTAPHQAQSLNSSLEAAMTDLSSIEQDMEQVWQELFSIPELQCLNTENKQLADTTAVPSPEATLTEMDSNYHFYSSISSLEKEVGNCGPHFLHGFEDSFSSILSTDDASQLTSLDSNPTLNTDFGDEFYSAFIAEPSDGGSMPSSAAISQSLSELLDGTIEGCDLSLCKAFNPKHAEGTMEFNDSDSGISLNTSPSRASPEHSVESSIYGDPPPGFSDSEMEELDSAPGSVKQNGPKAQPAHSPGDTVQPLSPAQGHSAPMRESQCENTTKKEVPVSPGHQKAPFTKDKHSSRLEAHLTRDELRAKALHIPFPVEKIINLPVDDFNEMMSKEQFNEAQLALIRDIRRRGKNKVAAQNCRKRKLENIVELEQDLGHLKDEREKLLREKGENDRNLHLLKRRLSTLYLEVFSMLRDEDGKPYSPSEYSLQQTRDGNVFLVPKSKKPDTKKN [W24R] |

Variants of: B1
Settings: with keap1_mouse Keap1, Q9Z2X8
Remark: another data set of the same source

| effect of a mutation on the interaction | Variant |
| --- | --- |
| disrupting interaction | MMDLELPPPGLQSQQDMDLIDILWRQDIDLAVSREVFDFSQRQKDYELEKQKKLEKERQEQLQKEQEKAFFAQFQLDEETGEFLPIQPAQHIQTDTSGSASYSQVAHIPKQDALYFEDCMQLLAETFPFVDDHESLALDIPSHAESSVFTAPHQAQSLNSSLEAAMTDLSSIEQDMEQVWQELFSIPELQCLNTENKQLADTTAVPSPEATLTEMDSNYHFYSSISSLEKEVGNCGPHFLHGFEDSFSSILSTDDASQLTSLDSNPTLNTDFGDEFYSAFIAEPSDGGSMPSSAAISQSLSELLDGTIEGCDLSLCKAFNPKHAEGTMEFNDSDSGISLNTSPSRASPEHSVESSIYGDPPPGFSDSEMEELDSAPGSVKQNGPKAQPAHSPGDTVQPLSPAQGHSAPMRESQCENTTKKEVPVSPGHQKAPFTKDKHSSRLEAHLTRDELRAKALHIPFPVEKIINLPVDDFNEMMSKEQFNEAQLALIRDIRRRGKNKVAAQNCRKRKLENIVELEQDLGHLKDEREKLLREKGENDRNLHLLKRRLSTLYLEVFSMLRDEDGKPYSPSEYSLQQTRDGNVFLVPKSKKPDTKKN [G31A] |

Variants of: B1
Settings: with keap1_mouse Keap1, Q9Z2X8
Remark: another data set of the same source

| effect of a mutation on the interaction | Variant |
| --- | --- |
| disrupting interaction | MMDLELPPPGLQSQQDMDLIDILWRQDIHLGVSREVFDFSQRQKDYELEKQKKLEKERQEQLQKEQEKAFFAQFQLDEETGEFLPIQPAQHIQTDTSGSASYSQVAHIPKQDALYFEDCMQLLAETFPFVDDHESLALDIPSHAESSVFTAPHQAQSLNSSLEAAMTDLSSIEQDMEQVWQELFSIPELQCLNTENKQLADTTAVPSPEATLTEMDSNYHFYSSISSLEKEVGNCGPHFLHGFEDSFSSILSTDDASQLTSLDSNPTLNTDFGDEFYSAFIAEPSDGGSMPSSAAISQSLSELLDGTIEGCDLSLCKAFNPKHAEGTMEFNDSDSGISLNTSPSRASPEHSVESSIYGDPPPGFSDSEMEELDSAPGSVKQNGPKAQPAHSPGDTVQPLSPAQGHSAPMRESQCENTTKKEVPVSPGHQKAPFTKDKHSSRLEAHLTRDELRAKALHIPFPVEKIINLPVDDFNEMMSKEQFNEAQLALIRDIRRRGKNKVAAQNCRKRKLENIVELEQDLGHLKDEREKLLREKGENDRNLHLLKRRLSTLYLEVFSMLRDEDGKPYSPSEYSLQQTRDGNVFLVPKSKKPDTKKN [D29H] |

Variants of: B1
Settings: with keap1_mouse Keap1, Q9Z2X8
Remark: another data set of the same source

| effect of a mutation on the interaction | Variant |
| --- | --- |
| disrupting interaction | MMDLELPPPGLQSQQDMDLIDILWRQDIGLGVSREVFDFSQRQKDYELEKQKKLEKERQEQLQKEQEKAFFAQFQLDEETGEFLPIQPAQHIQTDTSGSASYSQVAHIPKQDALYFEDCMQLLAETFPFVDDHESLALDIPSHAESSVFTAPHQAQSLNSSLEAAMTDLSSIEQDMEQVWQELFSIPELQCLNTENKQLADTTAVPSPEATLTEMDSNYHFYSSISSLEKEVGNCGPHFLHGFEDSFSSILSTDDASQLTSLDSNPTLNTDFGDEFYSAFIAEPSDGGSMPSSAAISQSLSELLDGTIEGCDLSLCKAFNPKHAEGTMEFNDSDSGISLNTSPSRASPEHSVESSIYGDPPPGFSDSEMEELDSAPGSVKQNGPKAQPAHSPGDTVQPLSPAQGHSAPMRESQCENTTKKEVPVSPGHQKAPFTKDKHSSRLEAHLTRDELRAKALHIPFPVEKIINLPVDDFNEMMSKEQFNEAQLALIRDIRRRGKNKVAAQNCRKRKLENIVELEQDLGHLKDEREKLLREKGENDRNLHLLKRRLSTLYLEVFSMLRDEDGKPYSPSEYSLQQTRDGNVFLVPKSKKPDTKKN [D29G] |

Variants of: B1
Settings: with keap1_mouse Keap1, Q9Z2X8
Remark: another data set of the same source

| effect of a mutation on the interaction | Variant |
| --- | --- |
| disrupting interaction | MMDLELPPPGLQSQQDMDLIDILWRQDIDFGVSREVFDFSQRQKDYELEKQKKLEKERQEQLQKEQEKAFFAQFQLDEETGEFLPIQPAQHIQTDTSGSASYSQVAHIPKQDALYFEDCMQLLAETFPFVDDHESLALDIPSHAESSVFTAPHQAQSLNSSLEAAMTDLSSIEQDMEQVWQELFSIPELQCLNTENKQLADTTAVPSPEATLTEMDSNYHFYSSISSLEKEVGNCGPHFLHGFEDSFSSILSTDDASQLTSLDSNPTLNTDFGDEFYSAFIAEPSDGGSMPSSAAISQSLSELLDGTIEGCDLSLCKAFNPKHAEGTMEFNDSDSGISLNTSPSRASPEHSVESSIYGDPPPGFSDSEMEELDSAPGSVKQNGPKAQPAHSPGDTVQPLSPAQGHSAPMRESQCENTTKKEVPVSPGHQKAPFTKDKHSSRLEAHLTRDELRAKALHIPFPVEKIINLPVDDFNEMMSKEQFNEAQLALIRDIRRRGKNKVAAQNCRKRKLENIVELEQDLGHLKDEREKLLREKGENDRNLHLLKRRLSTLYLEVFSMLRDEDGKPYSPSEYSLQQTRDGNVFLVPKSKKPDTKKN [L30F] |
